Where a chain is given by its changes, count along the chain named. In names and notes the source's numbering stands.
Key:
[1] = target: T1, wild-type CNTFR-HIS (human, UniProt P26992 23-342); assay: flow cytometry, yeast-displayed CLCF1 construct, soluble CNTFR-HIS titrated, anti-HIS Hilyte Fluor 488 detection
T1 construct: also called wtCNTFR-HIS; HIS tagged CNTFR; not shown: HIS tag
T1 sequence: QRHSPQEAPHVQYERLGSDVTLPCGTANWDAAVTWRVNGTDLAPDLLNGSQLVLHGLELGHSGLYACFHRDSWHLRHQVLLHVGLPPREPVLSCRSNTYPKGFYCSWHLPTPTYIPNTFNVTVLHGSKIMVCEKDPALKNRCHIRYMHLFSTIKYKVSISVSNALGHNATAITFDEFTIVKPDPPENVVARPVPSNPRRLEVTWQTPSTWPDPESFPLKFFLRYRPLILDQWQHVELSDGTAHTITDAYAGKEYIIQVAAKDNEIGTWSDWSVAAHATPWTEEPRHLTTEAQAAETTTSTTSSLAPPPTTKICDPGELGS
Procedure: (§1) Using equilibrium binding conditions and screened by flow cytometric sorting (FACS), high throughput screening of the CLCF1 library using wtCNTFR-HIS was performed to enrich variants showing increased CLCF1 binding. Expression signal was used to normalize CNTFR binding to distinguish high expressers from high affinity binders. Screening stringency was increased throughout sorting by decreasing the concentration of wtCNTFR-HIS incubated with the library. […] Thus a variant containing the three mutations (named FRR-CLCF1) was chosen for further characterization (FIG. 7).
(§2) Yeast displaying CLCF1 constructs were incubated with varying concentrations of CNTFR for 12 h at room temperature to reach equilibrium binding. This was followed by washing with BPBS and resuspension in PBSA with 1:500 ratio of chicken anti-c-Myc (Invitrogen) for 30 min at 4 C. Yeast were then washed and pelleted, and secondary labeling was performed on ice for 30 min using PBSA with 1:100 dilution of goat anti-chicken PE (Santa Cruz) and mouse anti-HIS Hilyte Fluor 488 (Anaspec). Then samples were washed and analyzed by flow cytometry using Accuri (BD Biosciences). Samples were analyzed on BD Bioscience software, and data were analyzed using FlowJo software. Kd values were determined by fitting to a four-parameter sigmoidal curve. Error bars represent the standard deviation of triplicate experiments.

[2] = target: T1, wild-type CNTFR-HIS; assay: flow cytometry, yeast-displayed CLCF1 construct, soluble CNTFR-HIS titrated, apparent Kd from a four-parameter fit
Procedure: as §1, §2

[3] = target: T2, wild-type CNTFR-Fc (human, UniProt P26992 23-342); assay: cell-free ELISA: HIS-tagged CLCF1 constructs with 2 nM CNTFR-Fc, captured by anti-HIS, detected by anti-mouse HRP; FRR-CLCF1 plus W169L
T2 construct: also called wtCNTFR-Fc; not shown: Fc domain; captured with anti-mouse Fc antibody
T2 sequence: T1 sequence
Procedure: (§3) 96-well plates were coated with 10 μg/mL of anti-HIS antibody overnight and blocked with 5% milk for 1 h. The plates were then washed twice with BPBS. Different concentrations of soluble constructs of HIS-tagged CLCF1 variants were incubated with 2 nM CNTFR-Fc in BPBS for 12 h at room temperature. The mixture was then added to 96-well plates coated with anti-HIS antibody for 1 h followed by washing with BPBS twice. Subsequently, the wells were incubated with 1:1000 diluted HRP conjugated anti-mouse antibody for 1 h at room temperature then washed four times with PBS. 1-Step Ultra TMB ELISA (Thermo Fisher Scientific) was used for the readout detected using a plate reader (Tecan).

[4] = target: T2, wild-type CNTFR-Fc; assay: cell-free ELISA: HIS-tagged CLCF1 constructs with 2 nM CNTFR-Fc, captured by anti-HIS, detected by anti-mouse HRP; FRR-CLCF1 plus K180R
Text: (§4) This was subsequently confirmed using a cell-free ELISA method. […] Unexpectedly, Y22C, W169L, and K180R decreased binding for gp130 with the combined mutations leading to the lowest binding while the mutations led to increased LIFR binding through increased CNTFR binding (FIG. 18). Because reduced binding interaction with beta receptors is desirable for antagonizing activation of CNTFR-CLCF1 mediated pathways, the clone with all six mutations, which was named sfCLCF1 (shuffled CLCF1) was selected for further studies.
as §3

[5] = target: T2, wild-type CNTFR-Fc; assay: assay not given; the FRR-CLCF1 and sfCLCF1 values in it equal those of FIG. 17 B (cell-free ELISA with 2 nM CNTFR-Fc)
[6] = target: T2, wild-type CNTFR-Fc; assay: cell-free ELISA, HIS-tagged soluble CLCF1 titrated against 2 nM CNTFR-Fc
Procedure: as §3

[7] = target: T2, wild-type CNTFR-Fc; assay: cell-free ELISA, HIS-tagged soluble CLCF1 titrated against 2 nM CNTFR-Fc, anti-HIS capture, HRP anti-mouse detection
Procedure: as §3

[8] = target: T2, wild-type CNTFR-Fc; assay: cell-free ELISA: HIS-tagged CLCF1 constructs with 2 nM CNTFR-Fc, captured by anti-HIS, detected by anti-mouse HRP; all six mutations combined (sfCLCF1)
Text: as §4, §3

[9] = target: T2, wild-type CNTFR-Fc; assay: sandwich ELISA, soluble CLCF1 titrated against 2 nM CNTFR-Fc, apparent Kd
Procedure: (§5) The CLCF1 variants isolated from screening were cloned into the pET28b bacterial expression plasmid and expressed and purified. […] A sandwich ELISA was performed using an anti-mouse Fc antibody as a capturing agent for wtCNTFR-Fc, followed by an anti-CLCF1 antibody as a detection agent for the bound complex. […] ELISA was also used to measure binding interactions with the gp130 and LIFR beta receptors.
(§6) To measure the solution-phase binding interaction between the CLCF1 constructs and CNTFR, different concentrations of soluble, recombinant CLCF1 variants and wtCLCF1 were incubated with 2 nM CNTFR-Fc in BPBS for 12 h at room temperature. The mixture was then added to 96-well plates coated with anti-mouse-Fc antibody for 1 h followed by washing with BPBS twice. Subsequently, the wells were incubated with 1:1000 diluted anti-CLCF1 rabbit antibody for 2 h at room temperature then washed four times with BPBS. The wells were incubated with a 1:1000 diluted HRP conjugated anti-rabbit antibody for 2 h at room temperature, and washed four times with BPBS. 1-Step Ultra TMB ELISA was used for the readout, which was measured using a plate reader (Tecan).

[10] = target: T2, wild-type CNTFR-Fc; assay: sandwich ELISA, soluble CLCF1 titrated against 2 nM CNTFR-Fc, anti-mouse-Fc capture, anti-CLCF1 detection
Procedure: as §5, §6

[11] = target: T2, wild-type CNTFR-Fc; assay: cell-free ELISA: HIS-tagged CLCF1 constructs with 2 nM CNTFR-Fc, captured by anti-HIS, detected by anti-mouse HRP; FRR-CLCF1 parent, no added mutation
Procedure: as §3

[12] = target: T2, wild-type CNTFR-Fc; assay: sandwich ELISA: soluble CLCF1 incubated with CNTFR-Fc, captured by anti-mouse Fc, detected by anti-CLCF1; sandwich ELISA, anti-mouse Fc capture, anti-CLCF1 detection
Procedure: as §5, §6

[13] = target: T2, wild-type CNTFR-Fc; assay: cell-free ELISA: HIS-tagged CLCF1 constructs with 2 nM CNTFR-Fc, captured by anti-HIS, detected by anti-mouse HRP; FRR-CLCF1 plus Y22C
Procedure: as §3

B1: v3 (ligand)
CLCF1 variant displayed on yeast as Aga2p fusion with c-myc tag: LNRTGDPGPGPSIQKTYDLTRYLEHQLRSLAGTYLNYLGPPFNEPDFNPPRLGAETLPRATVDLEVWRSLNDKLRLTQNYEAYSHLLCYLRGLNRRAATAELRRSLAHFCTSLQGLLGSIAGVMAALGYPLPQPLPGTEPTWTPGPARSDFLQKMDDFWLLKELQTWLWRSAKDFNRLKKKMQPPAAAVTLHLGAHGF
EC50 (read off the curve) [1]: ~3 nM | Kd [2]: 4.2 nM

B2: recombinant soluble FRR-CLCF1 with W169L (ligand)
chain: B1 CLCF1 variant displayed on yeast as Aga2p fusion with c-myc tag with L86F, W169L
notes: Read as FRR-CLCF1 plus W169L; HIS-tagged in the cell-free assay
Kd [3]: 0.64 nM

B3: recombinant soluble FRR-CLCF1 with K180R (ligand)
chain: B1 CLCF1 variant displayed on yeast as Aga2p fusion with c-myc tag with L86F, K180R
notes: Read as FRR-CLCF1 plus K180R; HIS-tagged in the cell-free assay
Kd [4]: 0.559 nM

B4: enCLCF1 (engineered CLCF1; Y22C, L86F, Q96R, H148R, F151A, K154A, W169L, K180R) (ligand)
chain: B1 CLCF1 variant displayed on yeast as Aga2p fusion with c-myc tag with Y22C, L86F, F151A, K154A, W169L, K180R
notes: That change is not in the list of mutations; also called sfAA-CLCF1
Kd [5]: 0.12 nM

B5: v4 (ligand)
soluble CLCF1 variant: B1 CLCF1 variant displayed on yeast as Aga2p fusion with c-myc tag with L86F, W169L, K180R
notes: the text prints no Kd for it
Kd [6]: 0.2 nM | EC50 (read off the curve) [7]: ~0.2 nM

B6: recombinant soluble sfCLCF1 (shuffled CLCF1; Y22C, L86F, Q96R, H148R, W169L, K180R) (ligand)
chain: B1 CLCF1 variant displayed on yeast as Aga2p fusion with c-myc tag with Y22C, L86F, W169L, K180R
notes: HIS-tagged in the cell-free assay; also called the clone with all 6 mutations; a variant with all of the mutations combined
EC50 (read off the curve) [7]: ~0.2 nM | Kd [8]: 0.115 nM

B7: recombinant soluble FRR-CLCF1 (L86F, Q96R, H148R) (ligand)
chain: B1 CLCF1 variant displayed on yeast as Aga2p fusion with c-myc tag with L86F
notes: Expressed in E. coli from pET28b
Kd [9]: 0.86 nM | EC50 (read off the curve) [10]: ~1 nM | EC50 (read off the curve) [7]: ~1 nM | Kd [11]: 0.869 nM | Kd [12]: ~0.83 nM

B8: recombinant soluble FRR-CLCF1 with Y22C (ligand)
chain: B1 CLCF1 variant displayed on yeast as Aga2p fusion with c-myc tag with Y22C, L86F
notes: HIS-tagged in the cell-free assay
Kd [13]: 0.464 nM

B9: FRRAA-CLCF1 (ligand)
chain: B1 CLCF1 variant displayed on yeast as Aga2p fusion with c-myc tag with L86F, F151A, K154A
notes: It is read as FRR-CLCF1 plus the LIFR-reducing alanine substitutions F151A and K154A
Kd [5]: 0.93 nM

— patent US20190328837A1 (Stanford University, published 2019)
